Test results reported in publication PMC6275156.

Target: BB2
Assay: SEC-MALS

stoichiometry N: 4
Substance: BB2
